Results taken from patent US12157773 (SYNTHEKINE, dated 2024).

The binders below were run against T1, hIL27Rα ECD antigen (human, UniProt Q6UWB1 33-516) (assay: PE-ELISA, periplasmic extract on antigen-coated plate).
T1 construct: Antigen of biopanning and PE-ELISA; also called ECD of the human IL27Rα; IL27Rα coated on the plate
T1 sequence: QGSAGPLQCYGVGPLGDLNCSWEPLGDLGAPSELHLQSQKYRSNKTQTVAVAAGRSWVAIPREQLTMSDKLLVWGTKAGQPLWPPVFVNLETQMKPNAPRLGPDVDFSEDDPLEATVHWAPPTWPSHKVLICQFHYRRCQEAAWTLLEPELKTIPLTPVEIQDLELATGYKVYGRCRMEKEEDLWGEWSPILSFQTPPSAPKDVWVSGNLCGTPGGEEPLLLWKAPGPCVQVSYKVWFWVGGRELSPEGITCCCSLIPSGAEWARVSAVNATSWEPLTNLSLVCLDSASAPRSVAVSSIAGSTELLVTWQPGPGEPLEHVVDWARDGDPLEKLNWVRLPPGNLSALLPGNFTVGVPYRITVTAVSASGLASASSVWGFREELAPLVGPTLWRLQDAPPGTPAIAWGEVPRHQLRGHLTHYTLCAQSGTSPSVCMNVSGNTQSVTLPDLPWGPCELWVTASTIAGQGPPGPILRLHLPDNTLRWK
Description: (§1) Upon completion of the biopanning of Example 3, three 96-well plates of individual phage clones were isolated in order to perform periplasmic extract ELISA (PE-ELISA) on IL27Rα coated plates to identify positive VHH binders that selectively bound […]. A 96-well plate was coated with IL27Rα and PBS under the same conditions. Next, wells were blocked at 37° C. for 1 h. Then, 100 µl of extracted antibodies was added to each well and incubated for 1 h. Subsequently, 100 µl of anti-tag polyclonal antibody conjugated to HRP was added to each well and incubated at 37° C. for 1 h. Plates were developed with TMB substrate. The reaction was stopped by the addition of H2SO4. Absorbance at 450 nm was read on a microtiter plate reader. […] Positive clones were sequenced, and sequences analyzed to identify unique clonotypes.

Binder	binding result
hIL27Ra VHH17 (VHH, Camel VHH as periplasmic extract of a phage clone in the PE-ELISA; also called anti-human IL27Rα VHH; not shown: HA/His tag from the pMECS phagemid) VHH: QVQLQESGGGLVQPGGSLRLSCAASGFTFSLSGMSWVRQAPGKGLEWVSAISSGGASTYYTDSVKGRFTISRDNAKNMLYLQLNSLKTEDTAMYYCAKGGSGYGDASRMTSPGSQGTQVTVSS	binds
hIL27Ra VHH2 (VHH, Camel VHH as periplasmic extract of a phage clone in the PE-ELISA; also called anti-human IL27Rα VHH; not shown: HA/His tag from the pMECS phagemid) VHH: QVQLQESGGGLVQPGGSLRLSCAASGFTFSLSGMSWVRQAPGKGLEWVSAISSGGASTYYTDSVKGRFTISRDNAKNILYLQLNSLKTEDTAMYYCAKGGSGYGDASRMTSPGSQGTQVTVSS	binds
hIL27Ra VHH24 (VHH, Camel VHH as periplasmic extract of a phage clone in the PE-ELISA; also called anti-human IL27Rα VHH; not shown: HA/His tag from the pMECS phagemid) VHH: QVQLQESGGGLVQPGGSLRLSCAASGFTFSHSGMSWVRQAPGKGLEWVSTINSGGASTYYTDSVKGRFTISRDNAKNMLYLQLNSLKTEDTAMYYCAKGGSGYGDASRMTSPGSQGTQVTVSS	binds
hIL27Ra VHH14 (VHH, Camel VHH as periplasmic extract of a phage clone in the PE-ELISA; also called anti-human IL27Rα VHH; not shown: HA/His tag from the pMECS phagemid) VHH: QVQLQESGGGSVQAGGSLRLSCVASGYVSCDYFLPSWYRQAPGKEREFVSIIDGTGSTSYAASVKGRFTASQDKGKNIAYLQMNSLKPEDTAMYYCKASCVRGRAISEYWGQGTQVTVSS	binds
hIL27Ra VHH3 (VHH, Camel VHH as periplasmic extract of a phage clone in the PE-ELISA; also called anti-human IL27Rα VHH; not shown: HA/His tag from the pMECS phagemid) VHH: QVQLQESGGGSVQAGGSLRLSCVASGYVSCDYFLPSWYRQAPGKEREFVSIIDGTGSTSYAASVKGRFTASEDKGKNIAYLQMNSLKPEDTAMYYCKASCVRGRAVSEYWGQGTQVTVSS	binds
hIL27Ra VHH5 (VHH, Camel VHH as periplasmic extract of a phage clone in the PE-ELISA; also called anti-human IL27Rα VHH; not shown: HA/His tag from the pMECS phagemid) VHH: QVQLQESGGGSVQAGGSLRLSCTASGYVSCDYFLPSWYRQAPGKEREFVSVIDGTGSTSYAASVKGRFTASQDKGKNIAYLQMNSLKPEDTAMYYCKASCVRGRAISEYWGQGTQVTVSS	binds
hIL27Ra VHH13 (VHH, Camel VHH as periplasmic extract of a phage clone in the PE-ELISA; also called anti-human IL27Rα VHH; not shown: HA/His tag from the pMECS phagemid) VHH: QVQLQESGGGSVQAGGSLRLSCVASGYVSCDYFLPSWYRQAPGKEREFVSIIDGTGSTSYAASVKGRFTASQDRGKNIAYLQMNSLKPEDTAMYYCKASCVRGRTISEYWGQGTQVTVSS	binds
hIL27Ra VHH18 (VHH, Camel VHH as periplasmic extract of a phage clone in the PE-ELISA; also called anti-human IL27Rα VHH; not shown: HA/His tag from the pMECS phagemid) VHH: QVQLQESGGGSVQAGGSLRLSCVASGYVSCDYFLPSWYRQAPGKEREFVSIIDGTGSTSYAASVKGRFTASQDKGKNIAYLQMNSLKPEDTAMYYCKASCVRGRGISEYWGQGTQVTVSS	binds
hIL27Ra VHH4 (VHH, Camel VHH as periplasmic extract of a phage clone in the PE-ELISA; also called anti-human IL27Rα VHH; not shown: HA/His tag from the pMECS phagemid) VHH: QVQLQESGGGLVQPGESLRLSCTASGFTFSNYAMSWVRQAPGKGLEWVSGINVAYGITSYADSVKGRFTISRDNTKNTLYLQLNSLKTEDTAIYYCVKHSGTTIPRGFISYTKRGQGTQVTVSS	binds
hIL27Ra VHH6 (VHH, Camel VHH as periplasmic extract of a phage clone in the PE-ELISA; also called anti-human IL27Rα VHH; not shown: HA/His tag from the pMECS phagemid) VHH: QVQLQESGGGLVQPGGSLRLSCAASGFSFSSYAMKWVRQAPGKGLEWVSTISSGGSSTNYADSVKGRFTISRDNAKNTLYLQLNSLKIEDTAMYYCAKAIVPTGATMERGQGTQVTVSS	binds
hIL27Ra VHH7 (VHH, Camel VHH as periplasmic extract of a phage clone in the PE-ELISA; also called anti-human IL27Rα VHH; not shown: HA/His tag from the pMECS phagemid) VHH: QVQLQESGGGLVQPGGSLRLSCAASGFTFSSYPMSWVRQAPGKGLEWISTISAGGDTTLYADSVKGRFTSSRDNAKNTLYLQLNSLKTEDTAIYYCAKRIDCNSGYCYRRNYWGQGTQVTVSS	binds
hIL27Ra VHH8 (VHH, Camel VHH as periplasmic extract of a phage clone in the PE-ELISA; also called anti-human IL27Rα VHH; not shown: HA/His tag from the pMECS phagemid) VHH: QVQLQESGGGSVQVGGSLRLSCAASGFTFSSYPMSWVRQAPGKGLEWISTISAGGDTTLYADSVKGRFTSSRDNAKNTLYLQLNSLKTEDTAIYYCAKRIDCNSGYCYRRNYWGQGTQVTVSS	binds
hIL27Ra VHH20 (VHH, Camel VHH as periplasmic extract of a phage clone in the PE-ELISA; also called anti-human IL27Rα VHH; not shown: HA/His tag from the pMECS phagemid) VHH: QVQLQESGGGLVQPGGSLRLSCAASGFTFSSYPMSWVRQAPGKGLEWVSTISSGGDTTLYADSVKGRFTSSRDNAKNTLYLQLNSLKTEDTAMYYCAKRIDCNSGYCYKRSYWGQGTQVTVSS	binds
hIL27Ra VHH10 (VHH, Camel VHH as periplasmic extract of a phage clone in the PE-ELISA; also called anti-human IL27Rα VHH; not shown: HA/His tag from the pMECS phagemid) VHH: QVQLQESGGGSVQAGGSLRLSCRASGSTYSNYCLGWFRQITGKEREGVAVINWVGGMLYFADSVKGRFTVSQDQAKNTLYLQMNSLKPEDTAMYYCAAESVSSFSCGGWLTRPDRVPYWGQGTQVTVSS	binds
hIL27Ra VHH11 (VHH, Camel VHH as periplasmic extract of a phage clone in the PE-ELISA; also called anti-human IL27Rα VHH; not shown: HA/His tag from the pMECS phagemid) VHH: QVQLQESGGGSVQAGGSLRLSCRASGSTYSNYCLGWFRQSTGKEREGVAVINWVGGMLYFADSVKGRFTVSQDHAKNTVTLQMNSLKPEDTAMYYCAAESVSSFSCGGWLTRPGRVPYWGQGTQVTVSS	binds
hIL27Ra VHH12 (VHH, Camel VHH as periplasmic extract of a phage clone in the PE-ELISA; also called anti-human IL27Rα VHH; not shown: HA/His tag from the pMECS phagemid) VHH: QVQLQESGGGSVQAGESLRLSCRASGSTYSNYCLGWFRQITGKEREGVAVINWVGGMLYFADSVKGRFTVSQDQAKNTVYLEMNSLKPEDTAMYYCATESVSSFSCGGWLTRPDRVPYWGQGTQVTVSS	binds
hIL27Ra VHH16 (VHH, Camel VHH as periplasmic extract of a phage clone in the PE-ELISA; also called anti-human IL27Rα VHH; not shown: HA/His tag from the pMECS phagemid) VHH: QVQLQESGGGSVQAGGSLRLSCRASGSTYSNYCLGWFRQITGKEREGVAVINWVGGMLYFADSVKGRFTVSQDQAKNTVYLQMNSLKPEDTAMYYCAAESASSFSCGGWLTRPDRVPYWGQGTQVTVSS	binds
hIL27Ra VHH22 (VHH, Camel VHH as periplasmic extract of a phage clone in the PE-ELISA; also called anti-human IL27Rα VHH; not shown: HA/His tag from the pMECS phagemid) VHH: QVQLQESGGGSVQAGGSLRLSCRASGSTYSNYCLGWFRQTTGKEREGVAVINWVGGMLYFADSVKGRFTVSQDQAKNTVYLQMNSLKPEDTAMYYCAAESVSSFSCGGWLTRPDRVPYWGQGTQVTVSS	binds
hIL27Ra VHH23 (VHH, Camel VHH as periplasmic extract of a phage clone in the PE-ELISA; also called anti-human IL27Rα VHH; not shown: HA/His tag from the pMECS phagemid) VHH: QVQLQESGGGSVQAGGSLRLSCRASRSPYGNYCLGWFRQSTGKEREGVAVINWVGGMLYFADSVKGRFTVSQDHAKNTVTLQMNSLKPEDTAMYYCAAESVSSFSCGGWLTRPDRVPYWGQGTQVTVSS	binds

Each binder was assayed against T2, mIL27Rα ECD antigen (mouse, UniProt O70394 25-510) in the same assay as above.
T2 construct: Antigen of biopanning and PE-ELISA; The immunogen was made as a fusion of the ECD (residues 25-510 of the precursor) with the human IgG1 hinge and Fc; also called ECD of mouse IL27Rα; IL27Rα coated on the plate
T2 sequence: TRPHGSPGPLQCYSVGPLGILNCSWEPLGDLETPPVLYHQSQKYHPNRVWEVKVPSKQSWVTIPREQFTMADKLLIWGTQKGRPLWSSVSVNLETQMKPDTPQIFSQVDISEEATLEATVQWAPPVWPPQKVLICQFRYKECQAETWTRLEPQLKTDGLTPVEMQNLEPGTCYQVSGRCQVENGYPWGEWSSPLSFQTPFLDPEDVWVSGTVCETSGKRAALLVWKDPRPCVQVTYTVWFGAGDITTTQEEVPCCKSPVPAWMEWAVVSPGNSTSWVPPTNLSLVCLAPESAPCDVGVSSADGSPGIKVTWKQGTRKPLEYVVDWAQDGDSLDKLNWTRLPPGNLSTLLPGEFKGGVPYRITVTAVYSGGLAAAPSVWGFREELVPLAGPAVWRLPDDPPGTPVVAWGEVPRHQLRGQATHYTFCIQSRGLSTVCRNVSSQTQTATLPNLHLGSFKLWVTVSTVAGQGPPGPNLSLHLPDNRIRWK
Description: as §1

Binder	binding result
mIL27Ra VHH1 (VHH, Camel VHH as periplasmic extract of a phage clone in the PE-ELISA; also called anti-mouse IL27Rα VHH; not shown: HA/His tag from the pMECS phagemid) VHH: QVQLQESGGGSVQAGGSLRLSCAASKNSNFMGWFRQAPGKEREGVAAMMTKNNNTYYADSVKGRFTISHDNAKNTVYLQMDSLKPEDTAVYYCAAVYRTRRLRVLEAANFDYWGQGTQVTVSS	binds
mIL27Ra VHH2 (VHH, Camel VHH as periplasmic extract of a phage clone in the PE-ELISA; also called anti-mouse IL27Rα VHH; not shown: HA/His tag from the pMECS phagemid) VHH: QVQLQESGGGSVQAGGSLRLSCTASGYTSSRYCMGWFRQTPGKKREGVAAIYTGGGTTFYHGSVKGRFTISQDNTTNTVYLQMHNLKPEDTAMYYCAAGPVTRACDEYNYWGQGTQVTVSS	binds
mIL27Ra VHH3 (VHH, Camel VHH as periplasmic extract of a phage clone in the PE-ELISA; also called anti-mouse IL27Rα VHH; not shown: HA/His tag from the pMECS phagemid) VHH: QVQLQESGGGSVQAGGSLRLSCAGSGYSLSNYCMGWFRQAPGQGREGVASLRFVSGATFYADSVKGRFTIAQDNAKNTLYLQMNSLKPEDTAMYYCGIKSRGICGGRLVDVDFGNWGQGTQVTVSS	binds
mIL27Ra VHH13 (VHH, Camel VHH as periplasmic extract of a phage clone in the PE-ELISA; also called anti-mouse IL27Rα VHH; not shown: HA/His tag from the pMECS phagemid) VHH: QVQLQESGGGSVQAGGSLRLSCAASGYSINRMGWFRQAPGKEREGVAAISIGGGRTYYADSVKGRFTISQDNAKNTVDLQMNSLKPEDTAMYYCAAGLVYGEAWLDSRHYNKWGQGTQVTVSS	binds
mIL27Ra VHH4 (VHH, Camel VHH as periplasmic extract of a phage clone in the PE-ELISA; also called anti-mouse IL27Rα VHH; not shown: HA/His tag from the pMECS phagemid) VHH: QVQLQESGGGSVQAGGSLRLSCAASGYSINRMGWFRQAPGKEREGVAAISIGGGQTYYADSVKGRFTISQDNAKNTVDLQMNSLKPEDTAMYYCAAGLVYGEAWLDSRHYNKWGQGTQVTVSS	binds
mIL27Ra VHH12 (VHH, Camel VHH as periplasmic extract of a phage clone in the PE-ELISA; also called anti-mouse IL27Rα VHH; not shown: HA/His tag from the pMECS phagemid) VHH: QVQLQESGGGSVQTGGSLRLSCAASGYSINRMAWFRQAPGKEREGVAAISIGGDRTYYADSVKGRFTISQDNAKHTVDLQMNSLKPEDTAMYYCAAGLVYGEAWLDSRHYNKWGQGTQVTVSS	binds
